Assay results reported in article PMC4875570.
Values joined by “and” are separate entries in the source; they are usually repeats but may differ in a detail not shown here. Equal entries are not always repeated.

Columns and labels:
[1] = target: severe acute respiratory syndrome (SARS) coronavirus papain-like protease (PLpro), wild type (SARS coronavirus) (UniProt P0C6X7)
[2] = target: severe acute respiratory syndrome (SARS) coronavirus papain-like protease (PLpro), wild type (SARS coronavirus) (UniProt P0C6X7); experiment: inhibition of AMC substrate cleavage

ISG15-AMC
KM of ISG15-AMC cleavage [1]: 15.9 µM | apparent kcat/KM of ISG15-AMC cleavage (Michaelis-Menten kinetics) [1]: 598000 M⁻¹ s⁻¹

Lys48-linked tri-ubiquitin (triUb^Lys48), free chain (from UniProt P0CG48 1-76) (complex)
Ki [2]: 10.6 µM and 10.1 µM and 4.08 µM

monoUb-AMC (from UniProt P0CG48 1-76)
KM of monoUb-AMC cleavage [1]: 15.1 µM | apparent kcat/KM of monoUb-AMC cleavage (Michaelis-Menten kinetics) [1]: 33300 M⁻¹ s⁻¹

triazole-linked diUb^Lys48-AMC (from UniProt P0CG48) (complex)
KM of triazole-linked diUb^Lys48-AMC cleavage [1]: 33.4 µM
